Measured values as given in the supplement of paper PMC9233669.
Fewer inactive variants are shown than the library holds.

Experiments:
[1] = tested on: biotinyl-Trp-oxazolone; assay: self-aminoacylation, catalytic enhancement (BWO) (fold over background); higher = more active; k-Seq, kA / k0A0; sequences stand for … in GGGAAUGGAUCCACAUCUACGAAUUC…UUCACUGCAGACUUGACGAAGCUG
Procedure, shortened: (§1)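 Mutagenized RNA pools with a 21-nt variable region (0.43 μM) were reacted with each biotinyl-aminoacyl-oxazolone at 2–1250 μM for 90 minutes at room temperature, in 50 μL HEPES/NaCl/KCl/MgCl2/CaCl2 buffer containing 5% acetonitrile at pH 6.9–7.0. RNA captured on streptavidin was quantified by triplicate qPCR and by Illumina sequencing. The fraction reacted for each sequence was fit to a pseudo-first-order model with bootstrapping, and catalytic enhancement is the median kA divided by the uncatalyzed rate, taken as the low-activity peak of a bimodal Gaussian fit.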

[2] = tested on: biotinyl-Leu-oxazolone; assay: self-aminoacylation, catalytic enhancement (BLO) (fold over background); higher = more active; k-Seq, kA / k0A0; sequences stand for … in GGGAAUGGAUCCACAUCUACGAAUUC…UUCACUGCAGACUUGACGAAGCUG
Procedure, shortened: as §1

[3] = tested on: biotinyl-Ile-oxazolone; assay: self-aminoacylation, catalytic enhancement (BIO) (fold over background); higher = more active; k-Seq, kA / k0A0; sequences stand for … in GGGAAUGGAUCCACAUCUACGAAUUC…UUCACUGCAGACUUGACGAAGCUG
Procedure, shortened: as §1

[4] = tested on: biotinyl-Met-oxazolone; assay: self-aminoacylation, catalytic enhancement (BMO) (fold over background); higher = more active; k-Seq, kA / k0A0; sequences stand for … in GGGAAUGGAUCCACAUCUACGAAUUC…UUCACUGCAGACUUGACGAAGCUG
Procedure, shortened: as §1

[5] = tested on: biotinyl-Phe-oxazolone; assay: self-aminoacylation, catalytic enhancement (BFO) (fold over background); higher = more active; k-Seq, kA / k0A0; sequences stand for … in GGGAAUGGAUCCACAUCUACGAAUUC…UUCACUGCAGACUUGACGAAGCUG
Procedure, shortened: as §1

[6] = tested on: biotinyl-Val-oxazolone; assay: self-aminoacylation, catalytic enhancement (BVO) (fold over background); higher = more active; k-Seq, kA / k0A0; sequences stand for … in GGGAAUGGAUCCACAUCUACGAAUUC…UUCACUGCAGACUUGACGAAGCUG
Procedure, shortened: as §1

Sequence	self-aminoacylation [1]	self-aminoacylation [2]	self-aminoacylation [3]	self-aminoacylation [4]	self-aminoacylation [5]	self-aminoacylation [6]
AUUCCCCUGGUCAUCGAGUGA [Fam2.1 aminoacylation ribozyme variant]	8.4	6.99	4	6.93	45.7	4.37
AUUCCCCUGGUCAUCGAUUGA [Fam2.1 aminoacylation ribozyme variant]	2.47	1.73	1.59	1.55	1.13	1.79
AUUCCCCUGGUCAUUGAGUGA [Fam2.1 aminoacylation ribozyme variant]	11.7	8.32	4.73	8.79	64.3	4.5
AUUCCCCUGGUUAUCGAGUGA [Fam2.1 aminoacylation ribozyme variant]	14.5	9.8	5.07	10.2	82.2	5.49
AUUCCCCUUGUCAUCGAGUGA [Fam2.1 aminoacylation ribozyme variant]	14.9	11.4	6.44	11.1	70.6	7.45
AUUCCCUUAGGUCAUCGGGUG [Fam2.2 aminoacylation ribozyme variant]	30.7	44.3	19.3	33.4	295	20.2
AUUCCGCUGGUCAUCGAGUGA [Fam2.1 aminoacylation ribozyme variant]	8.05	6.79	3.34	6.08	45.4	3.7
AUUCGCAUAGGUCAUCGGGUG [Fam2.2 aminoacylation ribozyme variant]	9.43	12.2	5.95	9.49	66	7.08
AUUCGCCCAGGUCAUCGGGUG [Fam2.2 aminoacylation ribozyme variant]	5.2	6.46	4.14	4.75	42	3.96
AUUCGCCUACGUCAUCGGGUG [Fam2.2 aminoacylation ribozyme variant]	4.12	7.11	3.15	5.54	44.1	3.86
AUUCGCCUAGCUCAUCGGGUG [Fam2.2 aminoacylation ribozyme variant]	2.87	2.99	2.6	2.28	12.7	2.59
AUUCGCCUAGGUCAUCAGGUG [Fam2.2 aminoacylation ribozyme variant]	2.53	2.02	1.48	1.97	7.29	1.53
AUUCGCCUAGGUCAUCGAGUG [Fam2.2 aminoacylation ribozyme variant]	7.17	15.9	8.77	11.7	29.3	7.39
